Results as given in US20210308188A1, “CELL CLUSTER INCLUDING OLFACTORY NEURON OR PRECURSOR CELL THEREOF, AND METHOD FOR PRODUCING SAME” (SUMITOMO CHEMICAL COMPANY, LIMITED, priority 2018, published 2021).

Key:
human iPS cells = assay: Study for time to add BMP signaling pathway-activating substance in cell cluster production (Experiment 11); assay type: cell-based; conditions: observed day 13
Description: In Experiment 11, study of cell cluster production efficiency was performed for time to add the BMP signaling pathway-activating substance, that is, the start time of step (2), by changing the time to add the BMP signaling pathway-activating substance from day 1 to day 6 after the start of suspension culturing, using human iPS cells. The experiments were performed in accordance with the procedures shown in the upper section of FIG. 25, and the same experimental manipulations as in Experiment 3 were performed except for those specifically indicated.
Maintenance-cultured human iPS cells were subjected to step (a), and then the human iPS cells dispersed into single cells were suspended into 100 μl of a serum-free medium in a non-cell-adhesive 96-well three-dimensional culture vessel (PrimeSurface 96 slit-well plate, MS-9096S, manufactured by Sumitomo Bakelite Co., Ltd.) to be 1×10^4 cells per well, and the cells were suspension-cultured under conditions of 37° C., 5% CO2. At the start of suspension culturing (day 0 after the start of suspension culturing, start of step (1)), Y27632 (final concentration 20 μM), IWP-2 (final concentration 2 μM) and SB-431542 (final concentration 1 μM) were added to the serum-free medium.
On any of days 1, 2, 3, 4, and 6 after the start of suspension culturing, a serum-free medium being free of Y27632 and containing IWP-2, SB-431542 and BMP4 was added at 100 μl per well (start of step (2)). BMP4 was added to the medium at 3 nM to be a final concentration in the well of 1.5 nM.
In addition, on day after the addition of a serum-free medium containing BMP4, the medium was half exchanged with a serum-free medium being free of Y27632 and BMP4 and containing SB-431542, K02288, FGF2, Heparin Sodium, and EGF (start of step (3c)). K02288, FGF2, Heparin Sodium, and EGF were added to the medium at 20 μM, 40 ng/ml, 20 μg/ml, and 40 ng/ml, respectively, to be final concentrations in the well were 10 μM, 20 ng/ml, 10 μg/ml, and 20 ng/ml. […]

human ES cells = assay: Study for addition-concentration of BMP signaling pathway-activating substance in cell cluster production (Experiment 7); assay type: cell-based
Description: In Experiment 7, a study of cell cluster production efficiency was performed for concentration of the BMP signaling pathway-activating substance in step (2), using human ES cells. The same experimental manipulations as in Experiment 2 (see the upper section of FIG. 8) were performed, and the concentration of BMP4 in the medium in step (2) was set to 7 conditions of 0.025 nM, 0.1 nM, 0.25 nM, 0.5 nM, 1.5 nM, 5 nM, and addition-free control.
On day 28 after the start of suspension culturing, bright-field observation was performed with an inverted microscope.
In addition, evaluation was performed for the cell clusters formed by adding each concentration of BMP4 according to the following four stages: cell cluster in a form close to spherical, whose 80% or more of the entire circumference was covered with non-neural epithelial tissue part (Grade 1, example=FIG. 20A); cell cluster whose 40% to 80% of the entire circumference was covered with non-neural epithelial tissue part or cell cluster in a distorted form (Grade 2, example=FIG. 20B); cell cluster whose ratio of non-neural epithelial tissue parts in the surface of the cell cluster was 40% or less (Grade 3, example=FIG. 20C); and cell cluster in which no non-neural epithelial tissue part was formed (Grade 4, example=FIG. 20D). The evaluation was performed by bright-field observation with an inverted microscope. As a result, non-neural epithelial tissues were not observed under the culture condition without adding of BMP4, as shown in FIG. 20E. Under the culture conditions in which 0.5 nM or more BMP4 was added in step (2), the Grade 1 cell clusters in a form close to a sphere, whose 80% or more of the entire circumference was covered with the non-neural epithelial tissue parts, were formed with high efficiency.

B1: BMP4: BMP signaling pathway-activating substance, manufactured by R&D Systems (protein, UniProt P12644 293-408, looked up)
Bone morphogenetic protein 4: SPKHHSQRARKKNKNCRRHSLYVDFSDVGWNDWIVAPPGYQAFYCHGDCPFPLADHLNSTNHAIVQTLVNSVNSSIPKACCVPTELSAISMLYLDEYDKVVLKNYQEMVVEGCGCR
formation of non-neural epithelial tissue on the surface of the cell aggregate (human iPS cells; BMP4 1.5 nM added on any of days 1, 2, and 3 after start of suspension culturing): a non-neural epithelial tissue was formed on the surface of the cell aggregate | formation of cell aggregates having non-neural epithelial tissues on the surface with larger diameter (human iPS cells; BMP4 1.5 nM added on day 2 after start of suspension culturing): most efficiently and stably formed | formation of non-neural epithelial tissue on the surface of the cell aggregates (human iPS cells; BMP4 1.5 nM added on day 4 or 6 after start of suspension culturing): no formation of non-neural epithelial tissue was observed | quality evaluation grade of cell clusters (circumference covered with non-neural epithelial tissue part) (human ES cells; 0.5 nM or more BMP4 added in step (2), day 28, formed with high efficiency): Grade 1 (cell cluster in a form close to spherical, whose 80% or more of the entire circumference was covered with non-neural epithelial tissue part) | diameter of spherical cell clusters formed (human ES cells; all BMP4 concentrations (0.025 to 5 nM) in step (2), day 28 after start of suspension culturing, bright-field observation): around 600 μm | concentration of BMP4 added in step (2) at which Grade 1 cell clusters were formed with high efficiency (human ES cells; day 28, bright-field observation): ≥ 0.5 nM
